Experimental data from patent publication US20190263932A1 (Eli Lilly, published 2019).
Residue numbers refer to the chain shown, from its start.

B1: mAb A (antibody, human IgG4 S228P, kappa, F234A L235A, V domains shown)
VH: EVQLVESGGGLVKPGGSLRLSCAASGFTFSGVSINWVRQAPGKGLEWVSSETTSSGTIYYADSVKGRFTISRDNAKNSLYLQMNSLRAEDTAVYYCARSYYYGMDVWGQGTTVTVSS
VL: DIVMTQTPLSSPVTLGQPASISCRSSQSLVHRNGNTYLSWLQQRPGQPPRLLIYKISNRFSGVPDRFSGSGAGTDFTLKISRVEAEDVGVYYCMQARQFPLTFGGGTKVEIKR
notes: Human IgG4PAA/Kappa
B2: mAb B (antibody, human IgG4 S228P, kappa, F234A L235A)
heavy: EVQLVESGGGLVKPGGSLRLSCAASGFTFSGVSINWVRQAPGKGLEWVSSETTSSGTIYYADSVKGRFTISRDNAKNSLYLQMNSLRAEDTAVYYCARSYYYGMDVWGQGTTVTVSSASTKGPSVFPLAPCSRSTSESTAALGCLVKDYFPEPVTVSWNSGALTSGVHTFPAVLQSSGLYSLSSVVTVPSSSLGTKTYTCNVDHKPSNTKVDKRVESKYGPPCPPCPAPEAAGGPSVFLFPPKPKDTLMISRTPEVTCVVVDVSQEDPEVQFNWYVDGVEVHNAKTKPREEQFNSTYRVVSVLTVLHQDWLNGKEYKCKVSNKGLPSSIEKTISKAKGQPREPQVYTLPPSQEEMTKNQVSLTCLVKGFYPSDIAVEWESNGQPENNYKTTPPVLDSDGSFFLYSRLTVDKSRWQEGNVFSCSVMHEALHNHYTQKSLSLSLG
light: DIVMTQTPLSSPVTLGQPASISCRSSQSLVHRAGNTYLSWLQQRPGQPPRLLIYKISNRFSGVPDRFSGSGAGTDFTLKISRVEAEDVGVYYCMQARQFPLTFGGGTKVEIKRTVAAPSVFIFPPSDEQLKSGTASVVCLLNNFYPREAKVQWKVDNALQSGNSQESVTEQDSKDSTYSLSSTLTLSKADYEKHKVYACEVTHQGLSSPVTKSFNRGEC
notes: Human IgG4PAA/Kappa
B3: mAb C (antibody, human IgG4 S228P, kappa, F234A L235A)
heavy: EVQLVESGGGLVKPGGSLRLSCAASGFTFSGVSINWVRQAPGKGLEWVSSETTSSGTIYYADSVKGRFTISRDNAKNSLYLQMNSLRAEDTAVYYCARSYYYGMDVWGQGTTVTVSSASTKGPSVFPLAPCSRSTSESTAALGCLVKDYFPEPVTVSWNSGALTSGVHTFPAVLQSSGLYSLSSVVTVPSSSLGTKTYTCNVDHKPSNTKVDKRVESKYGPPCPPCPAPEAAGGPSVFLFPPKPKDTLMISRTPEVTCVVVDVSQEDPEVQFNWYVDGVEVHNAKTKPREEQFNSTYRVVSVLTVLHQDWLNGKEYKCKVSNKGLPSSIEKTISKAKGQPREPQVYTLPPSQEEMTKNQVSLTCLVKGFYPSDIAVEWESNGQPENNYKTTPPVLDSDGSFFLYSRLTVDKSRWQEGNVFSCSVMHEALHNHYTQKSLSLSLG
light: B2 light with A33Q
notes: Human IgG4PAA/Kappa

Assays:
[1] = target: T1, rat TrkA receptor expressed in transfected HEK293 cells (rat, UniProt P35739 33-799); experiment: cell-based or functional assay
T1 sequence (P35739 33-799): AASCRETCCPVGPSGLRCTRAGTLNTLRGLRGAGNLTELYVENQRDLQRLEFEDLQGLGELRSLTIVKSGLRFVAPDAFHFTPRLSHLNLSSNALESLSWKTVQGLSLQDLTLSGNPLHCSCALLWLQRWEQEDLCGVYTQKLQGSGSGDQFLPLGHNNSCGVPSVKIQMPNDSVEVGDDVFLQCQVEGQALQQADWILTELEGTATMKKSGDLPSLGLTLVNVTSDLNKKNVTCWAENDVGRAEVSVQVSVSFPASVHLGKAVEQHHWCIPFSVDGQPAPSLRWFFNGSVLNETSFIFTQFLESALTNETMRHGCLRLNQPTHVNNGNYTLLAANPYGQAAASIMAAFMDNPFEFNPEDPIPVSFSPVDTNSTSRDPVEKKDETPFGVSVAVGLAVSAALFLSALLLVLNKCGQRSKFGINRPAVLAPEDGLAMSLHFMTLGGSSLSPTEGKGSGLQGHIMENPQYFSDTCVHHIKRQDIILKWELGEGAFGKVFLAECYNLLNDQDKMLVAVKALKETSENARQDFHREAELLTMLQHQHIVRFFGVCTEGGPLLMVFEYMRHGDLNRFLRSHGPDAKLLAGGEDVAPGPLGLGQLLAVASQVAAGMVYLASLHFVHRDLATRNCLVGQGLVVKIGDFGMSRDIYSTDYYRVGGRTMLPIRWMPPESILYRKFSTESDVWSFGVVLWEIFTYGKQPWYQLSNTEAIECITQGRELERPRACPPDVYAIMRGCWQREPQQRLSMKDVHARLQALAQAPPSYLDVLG

[2] = target: T2, recombinant human TrkA protein (human, UniProt P04629-2 34-407, limits assumed); experiment: NGF-blocking ELISA on coated human TrkA, 100 nM btNGF; mAb 5 nM
T2 sequence (P04629 other isoform, or with tags, fused parts or gaps limits assumed): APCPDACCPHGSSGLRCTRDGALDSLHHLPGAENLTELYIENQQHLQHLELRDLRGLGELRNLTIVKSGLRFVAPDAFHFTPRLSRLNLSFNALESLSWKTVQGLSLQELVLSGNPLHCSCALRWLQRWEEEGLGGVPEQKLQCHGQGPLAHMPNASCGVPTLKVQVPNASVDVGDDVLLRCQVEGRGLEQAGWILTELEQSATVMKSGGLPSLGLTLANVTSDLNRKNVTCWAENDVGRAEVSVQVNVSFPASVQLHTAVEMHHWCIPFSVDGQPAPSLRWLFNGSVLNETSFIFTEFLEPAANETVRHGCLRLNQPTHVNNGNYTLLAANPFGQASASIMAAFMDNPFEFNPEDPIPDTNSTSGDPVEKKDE
Method: (§1) Each row of a 96-well high-binding clear-bottom microtiter plate (Microlon, #655061) was coated overnight at 4° C. with 100 μL/well of recombinant human TrkA protein, diluted to 2 μg/mL in phosphate buffered saline, pH 7.2 (PBS). The next day, the coating solution was removed, and the plate was blocked with 150 μL of Casein-PBS (Thermo Scientific, #37528) for 1 hour at 25° C. with gentle shaking. The plate was then washed three times with PBS supplemented with 0.05% Tween20 (PBST). A two-fold dilution series of exemplified antibodies, along with IgG4 and IgG1 isotype control antibodies, was generated starting at 20 nM in Casein-PBS. 100 μL of the each dilution series sample was added to a well for 30 min at 37° C. with gentle shaking. The plate was then washed three times with PBST. […] The plate was then washed three times with PBST. A 1:3500 dilution of a 1 mg/mL stock solution of streptavidin-HRP (Thermo Scientific, #21130) in Casein-PBS was prepared and […] was added to each well for 20 min at 37° C. with gentle shaking. The plate was washed three times with PBST. […] The reaction was stopped by addition of 100 μL of 1M H₃PO₄ to each well. The absorbance at 450 nm (Abs450) was measured using a SpectraMax 340PC plate reader (Molecular Devices).

[3] = target: T2, recombinant human TrkA protein; experiment: NGF-blocking ELISA on coated human TrkA, 100 nM btNGF; mAb 0.16 nM
Method: as §1

[4] = target: TrkA on rat NEUROSCREEN-1 cells (pheochromocytoma PC12 subclone) (rat, UniProt P35739 33-799); experiment: cell-based or functional assay
TrkA on rat NEUROSCREEN-1 cells (pheochromocytoma PC12 subclone), sequence (P35739 33-799): as the sequence (P35739 33-799) above

[5] = target: T2, recombinant human TrkA protein; experiment: NGF-blocking ELISA on coated human TrkA, 100 nM btNGF; mAb 0.31 (printed pM, two-fold series gives nM)
Method: as §1

[6] = target: T2, recombinant human TrkA protein; experiment: NGF-blocking ELISA on coated human TrkA, 100 nM btNGF
Method: as §1

[7] = target: T2, recombinant human TrkA protein; experiment: NGF-blocking ELISA on coated human TrkA, 100 nM btNGF; mAb 0.08 nM
Method: as §1

[8] = target: T2, recombinant human TrkA protein; experiment: NGF-blocking ELISA on coated human TrkA, 100 nM btNGF; mAb 2.5 nM
Method: as §1

[9] = target: T2, recombinant human TrkA protein; experiment: NGF-blocking ELISA on coated human TrkA, 100 nM btNGF; mAb 0.63 nM
Method: as §1

[10] = target: T1, rat TrkA receptor expressed in …; experiment: cell-based or functional assay; remark: listed apart in the source
[11] = target: T3, Human TrkA Extracellular Domain Isoform 2 (33-408) (human, UniProt P04629 33-414); experiment: SPR, mAb captured on Protein A chip, 37 C
T3 construct: SPR analyte; also called Human TrkA Isoform 2
T3 sequence (P04629 other isoform, or with tags, fused parts or gaps): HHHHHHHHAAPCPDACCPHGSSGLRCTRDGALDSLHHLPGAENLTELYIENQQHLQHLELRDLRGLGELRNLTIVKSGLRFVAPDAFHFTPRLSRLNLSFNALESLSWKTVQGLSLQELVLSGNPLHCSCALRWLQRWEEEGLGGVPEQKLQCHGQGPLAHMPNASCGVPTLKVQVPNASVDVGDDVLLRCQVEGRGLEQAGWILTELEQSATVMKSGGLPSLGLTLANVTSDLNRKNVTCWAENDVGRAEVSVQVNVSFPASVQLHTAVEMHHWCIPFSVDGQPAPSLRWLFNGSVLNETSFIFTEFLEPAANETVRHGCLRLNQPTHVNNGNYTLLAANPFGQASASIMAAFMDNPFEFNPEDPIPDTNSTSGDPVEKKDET
Method: Antibodies are captured onto a Series-S Sensor Protein A CM5 chip (GE Healthcare). For each channel, Flow Cell 1 (FC1) is designated as a buffer reference and Flow Cell 2 (FC2) is designated for antibody capture. All FC2 on all eight channels are set to capture approximately 89 response units (RU) of antibody at a flow rate of 10 μL/min. All antibody samples are prepared at 5 μg/mL by dilution into the running buffer. […] Before the analysis cycle, the chip is regenerated with 3 injections of glycine (pH ˜1.5) at 100 μL/min for a contact time of 15 seconds on FC1 and FC2 in order to clean the surface of the chip. […] This is repeated for each antibody evaluated. Data is processed using predefined antibody parallel kinetics with reference subtraction and fit to a 1:1 binding model using BIACORE™ 8K evaluation software (version 1.1.1.7442) to determine the association rate (on-rate, kon, M⁻¹s⁻¹ units) and the dissociation rate (off-rate, koff, s⁻¹ units). The equilibrium dissociation constant (KD) is calculated from the relationship KD=koff/kₒₙ, in molar units. The average (Avg) KD and error, reported as the standard deviation (SD), is determined from three independent experiments.

Row | Binder | % Max stimulation, pTrkA [1] | EC50 (nM), pTrkA [1] | pTrkA counts per second, 0.1 pM mAb, no NGF [1] | pTrkA counts per second, 1 pM mAb, no NGF [1] | pTrkA counts per second, 10 pM mAb, no NGF [1] | pTrkA counts per second, 100 pM mAb, no NGF [1] | pTrkA counts per second, 1 nM mAb, no NGF [1] | pTrkA counts per second, 10 nM mAb, no NGF [1] | pTrkA counts per second, 100 nM mAb, no NGF [1] | pTrkA counts per second, 1 uM mAb, no NGF [1] | Absorbance 450 nm [2] | Absorbance 450 nm [3] | % Max Stimulation of neurite outgrowth [4] | IC50, inhibition of NGF-induced neurite outgrowth [4] | Absorbance 450 nm [5] | IC50 [6] | Absorbance 450 nm [7] | Absorbance 450 nm [8] | Absorbance 450 nm [9] | % Max Inhibition, pTrkA [10] | also measured
1 | B1 | 18% | 0.88 nM | 171000 counts per second | 174000 counts per second | 227000 counts per second | 203000 counts per second | 442000 counts per second | 640000 counts per second | 572000 counts per second | 493000 counts per second | 0.2 | 0.87 | 7% | 0.1 nM | 0.73 | 0.34 nM | 1.03 | 0.21 | 0.38 | 82% | IC50 (nM), pTrkA [10]: 0.57 nM; pTrkA counts per second, NGF +0.1 pM mAb [10]: 1.83e+06 counts per second; pTrkA counts per second, NGF +1 pM mAb [10]: 2.09e+06 counts per second; pTrkA counts per second, NGF +10 pM mAb [10]: 2.2e+06 counts per second; pTrkA counts per second, NGF +100 pM mAb [10]: 1.69e+06 counts per second; pTrkA counts per second, NGF +1 nM mAb [10]: 1.15e+06 counts per second; pTrkA counts per second, NGF +10 nM mAb [10]: 710000 counts per second; pTrkA counts per second, NGF +100 nM mAb [10]: 544000 counts per second; pTrkA counts per second, NGF +1 uM mAb [10]: 580000 counts per second
2 | B2 | 38% | 0.98 nM | 748000 counts per second | 844000 counts per second | 638000 counts per second | 758000 counts per second | 1.4e+06 counts per second | 2.1e+06 counts per second | 2.08e+06 counts per second | 1.86e+06 counts per second | 0.15 | 0.7 | 10% | 0.07 nM | 0.55 | 0.27 nM | 0.75 | 0.16 | 0.25 | 42% | Kd [11]: 7.7 nM; koff [11]: 0.0012 s⁻¹; kon [11]: 160000 M⁻¹ s⁻¹; IC50 (nM), pTrkA [10]: 0.72 nM; pTrkA counts per second, NGF +0.1 pM mAb [10]: 4.79e+06 counts per second; pTrkA counts per second, NGF +1 pM mAb [10]: 4.86e+06 counts per second; pTrkA counts per second, NGF +10 pM mAb [10]: 4.46e+06 counts per second; pTrkA counts per second, NGF +100 pM mAb [10]: 5.16e+06 counts per second; pTrkA counts per second, NGF +1 nM mAb [10]: 3.3e+06 counts per second; pTrkA counts per second, NGF +10 nM mAb [10]: 2.87e+06 counts per second; pTrkA counts per second, NGF +100 nM mAb [10]: 2.34e+06 counts per second; pTrkA counts per second, NGF +1 uM mAb [10]: 2.99e+06 counts per second
3 | B3 | 50% | 0.21 nM | 571000 counts per second | 613000 counts per second | 664000 counts per second | 922000 counts per second | 1.54e+06 counts per second | 1.69e+06 counts per second | 1.77e+06 counts per second | 1.63e+06 counts per second | 0.16 | 0.77 | 7% | 0.06 nM | 0.56 | 0.28 nM | 0.92 | 0.15 | 0.3 | 65% | IC50 (nM), pTrkA [10]: 1.6 nM; pTrkA counts per second, NGF +0.1 pM mAb [10]: 3.38e+06 counts per second; pTrkA counts per second, NGF +1 pM mAb [10]: 3.05e+06 counts per second; pTrkA counts per second, NGF +10 pM mAb [10]: 3.68e+06 counts per second; pTrkA counts per second, NGF +100 pM mAb [10]: 2.95e+06 counts per second; pTrkA counts per second, NGF +1 nM mAb [10]: 2.67e+06 counts per second; pTrkA counts per second, NGF +10 nM mAb [10]: 1.53e+06 counts per second; pTrkA counts per second, NGF +100 nM mAb [10]: 1.58e+06 counts per second; pTrkA counts per second, NGF +1 uM mAb [10]: 1.3e+06 counts per second
